Test results taken from publication PMC3014985.
Several values for one entry are separate records, joined by “and”; a condition that tells them apart may be missing. Identical values can stand only once. Like-named read-outs stand apart in the source and are kept apart here.

What was measured:
[1] = target: 6His-RVFV NP (Rift Valley fever virus nucleoprotein with N-terminal hexahistidine tag) (Rift Valley fever virus (strain Smithburn)) (UniProt P21700); experiment: SEC
[2] = target: 6His-RVFV NP (Rift Valley fever virus nucleoprotein with N-terminal hexahistidine tag) (Rift Valley fever virus (strain Smithburn)) (UniProt P21700); experiment: SEC; remark: listed apart in the source

Substance: 6His-RVFV NP (Rift Valley fever virus nucleoprotein with N-terminal hexahistidine tag) (from UniProt P21700 1-245) (natural protein)
- stoichiometry N [1]: 4.3
- stoichiometry N [2]: 3 and 2
